# According to patent US9505841B2, “Use of an anti-Ang2 antibody” (Samsung Electronics Co., Ltd., priority 2013, dated 2016):
# Columns and labels:
# Assay type in all cases: cell-based, human
# [1] = system: HL-60 cells adhered to HUVEC cells; test: Binding between inflammatory cells HL-60 and HUVEC induced by TNF-a; settings: 1 ng/ml TNF-a; 0.2 ug/ml Ang1 or 0.1 ug/ml Ang2 + 0.5 ug/ml 10D6
# Description: Meanwhile, if the expression of inflammatory adhesion substances (ICAM-1, E-selectin, etc.) of vascular endothelial cells is increased, binding between the inflammatory cells and the vascular endothelial cells are accelerated and inflammatory response is thus induced. To confirm this, an experiment for measuring binding between inflammatory cells HL-60 (ATCC) and HUVEC was conducted.
# HUVEC cells (4×10^5) were cultured in a 24-mutiwell plate and treated with 0.1 ug/ml of Ang2 alone or 0.1 ug/ml of Ang2 together with 0.5 ug/ml of antibody 10D6, and a group in which 0.2 ug/ml of Ang1, and 0.1 ug/ml of Ang2 (R&D systems) and 0.5 ug/ml of Regeneron Co. antibody (RG antibody) were co-treated was included as a control group. As above, the HUVEC cells were treated with Angiopoietin and antibody and after 30-min. pre-incubation, they were treated with 1 ng/ml of TNF-a (eBioscience) to induce inflammatory response and incubated for 2 hours and 30 min.
# After the HUVEC cells were washed with complete media (Lonza), HL-60 cells dyed with Calcein-AM (BD bioscience) solution were added at the amount of 2.5×10^5 cells to each well and incubated for 1 hour. […] The obtained lysate was transported to a 96-well plate, and fluorescence strengths derived from the HL-60 cells were measured at 485/535 nm (Ex/Em) setting using an Envision 2104 multilabel Reader (Perkin Elmer).
# [2] = system: ICAM-1; test: LPS-induced mRNA expression of ICAM-1 in HUVEC (qPCR); settings: 100 ng/ml LPS 5 hours, 0.2 ug/ml Ang1 or 0.1 ug/ml Ang2 + 0.5 ug/ml antibody
# Description: (§1) To see anti-inflammatory effects by antibody 10D6, HUVEC (ATCC) cells (4×10^5) were treated with Ang2 alone or Ang2 together with antibody 10D6, and a group in which Ang1 and Ang2 (R&D systems) and Regeneron Co. antibody (RG antibody) were co-treated was included as a control group. HUVEC cells were treated with 0.2 ug/ml of Ang1, 0.1 ug/ml of Ang2, or 0.1 ug/ml of Ang2 and 0.5 ug/ml of antibody, respectively and after 30-min. pre-incubation, they were treated with 100 ng/ml of LPS (Sigma) to induce inflammatory response and incubated for 5 hours.
# (§2) The degree of the inflammatory response was identified by measuring the mRNA expression degree of an inflammatory adhesion substance (ICAM-1, E-selectin). The cells were washed using PBS, RNA was extracted using RNeasy Mini kit (Qiagen), and among them, 2 ug of RNA was synthesized into cDNA using Transcriptor First Strand cDNA synthesis kit (Roche). qPCR reaction was performed using RT2 SYBR™ Green Mastermix (Qiagen) and LightCycler™ 480 Real-Time PCR System (Roche). As an internal control for calibrating the amount of RNA in a sample, HPRT1 was used, and qPCR complied with the following procedures with regard to all the primers.
# (§3) Step 1: 95° C., 10 min; Step 2 (45 cycles): Step 2-1: 95° C., 15 sec; Step 2-2: 60° C., 1 min; Step 3: 65° C., 15 sec; Step 4: 95° C., continuous (every 20° C.); Step 6: 40° C., 10 sec.
# [3] = system: E-selectin; test: LPS-induced mRNA expression of E-selectin in HUVEC (qPCR); settings: 100 ng/ml LPS 5 hours, 0.2 ug/ml Ang1 or 0.1 ug/ml Ang2 + 0.5 ug/ml antibody
# Description: as §1, §2, §3
# [4] = system: Akt, eNOS and 42/44; test: Phosphorylation of Tie2 downstream signaling proteins in HUVEC (immunoblot); settings: 60 nM 10D6 + 40 nM Ang2, or Ang1 4 nM alone, 30 min
# Description: To see whether antibody 10D6 induces the activation of the downstream signaling of a Tie2 receptor as well as the activation of the Tie2 receptor itself, the phosphorylation degrees of proteins participating in the downstream signaling when Ang2 alone or Ang2 and antibody 10D6 was treated were tested using immune blotting.
# Specifically, HUVEC (ATCC) cells (1×10^6) were cultured in a 6-well culture dish using EGM-2 (Lonza) media at 37° C. and when they reached 80˜90% confluency, the media were replaced with serum-free media (Lonza) and cultured at 37° C. for 6 to 16 hours. The dish was washed once with PBS, and the cultured cells were treated with a mixture prepared by mixing 60 nM of the Ang2 antibody (10D6) with 40 nM of Ang2 protein (R&D systems) and letting them stand for 20 min. and further cultured for 30 min. For comparison, groups in which Ang1 (R&D systems) 4 nM, Ang2 (R&D systems) 40 nM, and Ang2 (R&D systems) 40 nM+anti-Ang2 antibody (Regeneron) 60 nM were treated respectively were prepared.
# The cells were washed using PBS, treated with a lysis buffer (Roche), collected to a tube to be dissolved at 4° C. for 30 min. and then, centrifuged at 13,000 rpm for 15 min. to measure a supernatant. A sample buffer (Invitrogen) mixed with a reducing agent was added to 25 ug of a cell lysate, which was boiled at 95° C. for 5 min., and then, applied to NuPAGE Novex 4-12% Bis-Tris gel (Invitrogen) and transferred onto Nitrocellulose membrane (Invitrogen).
# To see the presence of the phosphorylation of Akt, eNOS and 42/44 involved in the downstream signaling, the blots were blocked with PBST mixed with 3% (v/v) skim milk (Sigma) for 30 min. and then treated with an anti pAkt antibody, anti p-eNOS antibody, and anti p-42/44 antibody (all of them; cell signaling). The blots were reacted in a stripping buffer (Thermo) for 15 min. and then blocked again to identify Akt, eNOS, and 42/44 using an anti Akt antibody, anti eNOS antibody, and anti 42/44 antibody (all of them; cell signaling).
# [5] = system: HUVEC monolayer; test: In vitro vascular permeability assay (FITC-dextran); settings: 200 ng/ml Ang1 alone or 200 ng/ml Ang2 + 1 ug/ml 10D6
# Description: To see the cell permeability suppression effects of antibody 10D6, in vitro vascular permeability assay kit (Millipore) was employed. HUVEC (ATCC) cells (5×10^4) were added to a collagen-coated transwell and cultured for 2 days to prepare a confluent monolayer. It was treated with 200 ng/ml of Ang2 or 200 ng/ml of Ang1 (R&D systems) alone, or 200 ng/ml of Ang2 and 1 ug/ml of antibody 10D6, pre-incubated for 30 min. and then, treated with 100 ng/ml of LPS (Lipopolysaccharide; Sigma) or 100 ng/ml TNF-a (R&D systems) to induce the permeability of HUVEC monolayer. LPS or TNF-a weakens binding between HUVEC cells to form a gap therebetween, thereby increasing the migration of materials in the HUVEC monolayer. After 6-hour incubation for the LPS treatment group and 22-hour incubation for the TNF-a group, the upper chamber was treated with FITC-dextran (Millipore) and incubated for 18 min. The fluorescence of FITC-dextran migrated to the lower chamber was measured at 485/535 nm (Ex/Em) setting using an Envision 2104 multilabel Reader (Perkinelmer).
molecule,measurement,setting,value
"Ang1: Angiopoietin-1 protein (R&D systems), ligand which activates the Tie2 receptor (protein, UniProt Q15389 16-498, looked up) Angiopoietin-1: HIGCSNQRRSPENSGRRYNRIQHGQCAYTFILPEHDGNCRESTTDQYNTNALQRDAPHVEPDFSSQKLQHLEHVMENYTQWLQKLENYIVENMKSEMAQIQQNAVQNHTATMLEIGTSLLSQTAEQTRKLTDVETQVLNQTSRLEIQLLENSLSTYKLEKQLLQQTNEILKIHEKNSLLEHKILEMEGKHKEELDTLKEEKENLQGLVTRQTYIIQELEKQLNRATTNNSVLQKQQLELMDTVHNLVNLCTKEGVLLKGGKREEEKPFRDCADVYQAGFNKSGIYTIYINNMPEPKKVFCNMDVNGGGWTVIQHREDGSLDFQRGWKEYKMGFGNPSGEYWLGNEFIFAITSQRQYMLRIELMDWEGNRAYSQYDRFHIGNEKQNYRLYLKGHTGTAGKQSSLILHGADFSTKDADNDNCMCKCALMLTGGWWFDACGPSNLNGMFYTAGQNHGKLNGIKWHYFKGPSYSLRSTTMMIRPLDF",binding between HUVEC cells and HL-60 cells induced by TNF-a,[1],remarkably suppressed
same,expression of ICAM-1 induced by LPS,[2],remarkably suppressed
same,expression of E-selectin induced by LPS,[3],remarkably suppressed
same,"downstream signaling (phosphorylation of Akt, eNOS, 42/44) compared to Ang2 sole-treatment and Ang2 + RG antibody",[4],strongly induced
same,vascular permeability increased by LPS,"[5]; 100 ng/ml LPS, 6 hour",decreased to the control level
same,vascular permeability increased by TNF-a,"[5]; 100 ng/ml TNF-a, 22 hour",decreased to the control level
